Experimental data from doi:10.1101/2024.09.13.612941.

B1: R-loopshort (mixed)
DNA 1: GCCAGGGACGAGGTGAACCTGCAGGTGGGCGGCTACTACTTAGATGTCATCCGAGGCTTATTGGTAGAATTCGGCAGCGTCATGCGACGGC
DNA 2: GCCGTCGCATGACGCTGCCGAATTCTACCACGCGATTCATACCTGTCGTGCCAGCTGCTTTGCCCACCTGCAGGTTCACCTCGTCCCTGGC
RNA: GCAGCUGGCACGACAGGUAUGAAUC
B2: dsDNAshort (dsDNA)
DNA 1: GCAGCTGGCACGACAGGTATGAATC
DNA 2: GATTCATACCTGTCGTGCCAGCTGC
B3: DNA-RNA hybrid (DNA:RNA)
RNA: GCAGCUGGCACGACAGGUAUGAAUC
DNA: GATTCATACCTGTCGTGCCAGCTGC

Assays:
SMARCAD1 [1] = biological target: T1, SMARCAD1 (human, UniProt Q9H4L7-2 1-1028, V974A); assay: fluorescence polarization
T1 sequence: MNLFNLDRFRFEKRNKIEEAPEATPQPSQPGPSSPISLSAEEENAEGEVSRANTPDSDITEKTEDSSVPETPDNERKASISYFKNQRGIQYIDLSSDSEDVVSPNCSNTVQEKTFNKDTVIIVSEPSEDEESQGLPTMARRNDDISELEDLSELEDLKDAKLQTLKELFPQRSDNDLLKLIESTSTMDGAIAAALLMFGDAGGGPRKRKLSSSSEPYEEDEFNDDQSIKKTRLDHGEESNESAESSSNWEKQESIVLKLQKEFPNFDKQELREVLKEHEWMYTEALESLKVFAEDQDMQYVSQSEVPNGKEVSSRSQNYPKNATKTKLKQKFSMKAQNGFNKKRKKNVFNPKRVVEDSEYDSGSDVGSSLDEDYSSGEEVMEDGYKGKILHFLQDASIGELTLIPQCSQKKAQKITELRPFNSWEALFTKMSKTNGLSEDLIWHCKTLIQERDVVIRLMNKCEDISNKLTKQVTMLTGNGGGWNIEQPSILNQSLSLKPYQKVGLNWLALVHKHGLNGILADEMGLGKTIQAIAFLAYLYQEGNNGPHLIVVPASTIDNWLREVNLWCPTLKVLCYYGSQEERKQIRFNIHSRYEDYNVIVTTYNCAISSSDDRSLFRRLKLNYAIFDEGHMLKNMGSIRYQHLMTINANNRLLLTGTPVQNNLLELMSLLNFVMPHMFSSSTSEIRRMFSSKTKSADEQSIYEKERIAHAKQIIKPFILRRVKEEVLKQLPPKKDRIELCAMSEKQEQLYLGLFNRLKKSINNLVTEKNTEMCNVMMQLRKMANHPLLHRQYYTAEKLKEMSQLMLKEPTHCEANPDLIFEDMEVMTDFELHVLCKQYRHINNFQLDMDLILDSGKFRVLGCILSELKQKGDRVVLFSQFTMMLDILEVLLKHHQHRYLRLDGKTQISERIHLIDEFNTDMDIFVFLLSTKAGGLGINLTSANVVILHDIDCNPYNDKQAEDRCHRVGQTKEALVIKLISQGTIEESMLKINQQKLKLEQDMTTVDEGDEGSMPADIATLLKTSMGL

SMARCAD1 [2] = biological target: T1, SMARCAD1; assay: fluorescence polarization; remark: listed apart in the source

| Binder | apparent K (half saturation) (SMARCAD1 [1]) | binding result (SMARCAD1 [2]) |
| --- | --- | --- |
| B1 | 26.1 ± 1.4 nM | – |
| B2 | 39.5 ± 2 nM | – |
| B3 | – | binds |
